Patent US20230295332A1 (INTERIUS BIOTHERAPEUTICS, published 2023)

B1: CD8 binder of SEQ ID NO: 70 (printed in Table 1 as 'CD7 Binder (SEQ ID NO. 70)') (scFv)
scFv: EVQLQQSGPELVKPGASVKISCKASRYTFTDYNLHWVKLSHEKSLEWIGFIYPYNGGTGYNQKFKNKAKLTVDYSSSTAYMELRSLTSVDAAVYYCARDHRYNEGVSFDYWGQGTTLTVSSGGGGSGGGGSGGGGSGGGGSNIVLTQSPASLAVSLGQRATISCRASESVDGFGNSFMNWYQQKPGQSPKLLIYLASNLESGVPARFSGSGSRTDFTLTIDPVEADDAATYYCQQNNEDPYTFGGGTKLEIKR
B2: CD7 Binder (SEQ ID NO. 51) (scFv)
scFv: DILLTQSPAILSVSPGERVSFSCRASQSIGTSIHWYQQRTNDSPRLLIKYASESISGIPSRFSGSGSGTDFTLSINSVESEDIADYYCQQSNSWPTTFGGGTKLEIKRGGGGSGGGGSGGGGSGGGGSQVQLQQPGAELVKPGASVKLSCKASGYPFTSYWIHWVKQRPGRGLEWLGRIDPNSGDTKYNEKFKNKATLTVDKSSTTAYMQLSSLTSEDSAVYYCARSPYYSNDNSMDYWGQGTSVTVSS
B3: CD8 Binder (SEQ ID NO. 69) (scFv)
scFv: NIVLTQSPASLAVSLGQRATISCRASESVDGFGNSFMNWYQQKPGQSPKLLIYLASNLESGVPARFSGSGSRTDFTLTIDPVEADDAATYYCQQNNEDPYTFGGGTKLEIKRGGGGSGGGGSGGGGSGGGGSEVQLQQSGPELVKPGASVKISCKASRYTFTDYNLHWVKLSHEKSLEWIGFIYPYNGGTGYNQKFKNKAKLTVDYSSSTAYMELRSLTSVDAAVYYCARDHRYNEGVSFDYWGQGTTLTVSS
B4: CD7 Binder (SEQ ID NO. 52) (scFv)
scFv: QVQLQQPGAELVKPGASVKLSCKASGYPFTSYWIHWVKQRPGRGLEWLGRIDPNSGDTKYNEKFKNKATLTVDKSSTTAYMQLSSLTSEDSAVYYCARSPYYSNDNSMDYWGQGTSVTVSSGGGGSGGGGSGGGGSGGGGSDILLTQSPAILSVSPGERVSFSCRASQSIGTSIHWYQQRTNDSPRLLIKYASESISGIPSRFSGSGSGTDFTLSINSVESEDIADYYCQQSNSWPTTFGGGTKLEIKR

What was measured:
Assay in all cases: cell-based or functional assay
non-human primate CD8 = non-human primate CD8 (non-human primate)
human CD8 = human CD8 (human, UniProt P01732 22-235; P10966 22-210)
Chain of human CD8 (P01732 22-235 Y112C limits assumed, chain 1 of 2): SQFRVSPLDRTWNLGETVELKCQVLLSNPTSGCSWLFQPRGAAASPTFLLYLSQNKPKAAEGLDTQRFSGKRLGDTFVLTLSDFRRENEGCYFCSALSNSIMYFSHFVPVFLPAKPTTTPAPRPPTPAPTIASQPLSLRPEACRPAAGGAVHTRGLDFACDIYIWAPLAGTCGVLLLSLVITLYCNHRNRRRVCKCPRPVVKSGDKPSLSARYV
Chain of human CD8 (P10966 other isoform, or with tags, fused parts or gaps limits assumed, chain 2 of 2): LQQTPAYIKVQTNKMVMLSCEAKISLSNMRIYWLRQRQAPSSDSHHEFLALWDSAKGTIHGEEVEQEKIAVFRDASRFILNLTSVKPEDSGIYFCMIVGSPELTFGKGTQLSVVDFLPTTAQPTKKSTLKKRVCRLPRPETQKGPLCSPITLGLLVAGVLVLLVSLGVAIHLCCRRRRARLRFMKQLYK

non-human primate CD7 = target: T1, non-human primate CD7 (non-human primate)
T1 chain: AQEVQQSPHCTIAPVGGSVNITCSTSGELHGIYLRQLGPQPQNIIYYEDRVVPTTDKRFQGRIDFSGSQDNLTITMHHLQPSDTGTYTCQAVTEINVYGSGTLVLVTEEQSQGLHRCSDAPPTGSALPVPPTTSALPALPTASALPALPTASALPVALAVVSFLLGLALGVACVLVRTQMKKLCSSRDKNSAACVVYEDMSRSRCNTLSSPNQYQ

human CD7 = target: T2, human CD7 (human, UniProt P09564 26-240)
T2 sequence: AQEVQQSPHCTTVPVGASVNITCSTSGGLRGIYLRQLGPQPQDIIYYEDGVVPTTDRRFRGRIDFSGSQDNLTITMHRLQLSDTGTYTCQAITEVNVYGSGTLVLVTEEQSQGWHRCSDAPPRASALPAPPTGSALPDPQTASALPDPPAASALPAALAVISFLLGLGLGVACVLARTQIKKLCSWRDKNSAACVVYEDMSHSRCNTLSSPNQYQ

Binder	NHP PBMC Transduction (% positive) (non-human primate CD8)	Human PBMC Transduction (% positive) (human CD8)	NHP PBMC Transduction (% positive) (non-human primate CD7)	Human PBMC Transduction (% positive) (human CD7)
B1	0.76	3.17	–	–
B2	–	–	2.61	19.3
B3	1.8	4.09	–	–
B4	–	–	5.64	21.6
